Measured values taken from publication PMC6093860.
Like-named read-outs stand apart in the source and are kept apart here.

Experiments:
[1] = target: human complement component 9 (C9), wild type (human); assay: cryo-EM structure; polyC9 formed from purified human C9 at 1.1-1.5 mg mL^-1 in 10 mM HEPES pH 7.5, 50 mM NaCl with amphipol A8-35 (0.015-0.02 mg mL^-1), 37 °C overnight; ring of C9 subunits
[2] = target: human complement component 9 (C9), wild type (human); assay: as above; remark: listed apart in the source

human complement component 9 (C9), wild type (natural protein)
stoichiometry N [1]: 21
stoichiometry N [2]: 22
